Assay results as given in US20080050375A1 (Eli Lilly, published 2008).
Residue numbers refer to the chain shown, from its start.

B1: Fab DM4 (Fab, V domains shown)
VH: QVQLVQSGAEVKKPGASVKVSCKASGYDFTDYNIHWVRQAPGQGLEWMGYIYPYDGETGYNQKFKSRVTMTTDTSTSTAYMELRSLRSDDTAVYYCARGYRWLAYWGQGTLVTVSS
VL: DIQMTQSPSSLSASVGDRVTITCRASSSVSYMHWYQQKPGKAPKPLIYATSNLAYGVPSRFSGSGSGTDFTLTISSLQPEDFATYYCQQWDLNPPAFGQGTKLEIK
notes: Fab with human constant regions (kappa light chain)
B2: Fab 23A3 (Fab, V domains shown)
VH: B1 VH with I34M, H35V, Y50S, W102A, L103F, A104E
VL: B1 VL with S30P, P45L, L53P
notes: as for B1
B3: Fab DM7 (Fab, V domains shown)
VH: B1 VH with I34M, A104Y
VL: B1 VL with Y55K
notes: as for B1
B4: Fab 21D1 (Fab, V domains shown)
VH: B1 VH with D28T, L103F
VL: B1 VL with S30P, Y35F, P45S, L53P
notes: Fab with human constant regions (kappa light chain) from M13 expression vectors

What was measured:
[1] = biological target: T1, human TGF-beta 1 (R&D Systems, Cat # 240-B/CF) (human, UniProt P01137 279-390); test: KinExA 3000, equilibrium, Fab in solution
T1 construct: They match K95 and residues 58-61 of mature numbering; also called TGF-β1; mature TGF-β1
T1 sequence (P01137 279-390 limits assumed): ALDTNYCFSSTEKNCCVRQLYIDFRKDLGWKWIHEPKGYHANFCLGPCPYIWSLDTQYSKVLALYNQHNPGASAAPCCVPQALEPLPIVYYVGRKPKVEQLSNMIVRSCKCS
Experimental: (§1) A KinExA 3000 instrument (Sapidyne Inst. Inc.) is used to measure binding kinetics. Briefly, an antigen is covalently coupled to alzactone beads and the binding of a free Fab binding composition of the invention to the beads is detected on the instrument. […] After the incubation, free Fab in each equilibrated sample is determined on the KinExA 3000 according to the manufacturer's instructions. Kd values are determined using KinExA 3000 software.

[2] = biological target: T1, human TGF-beta 1 (R&D Systems, Cat # …); test: KinExA 3000, Fab in solution, antigen on beads
Experimental: as §1
(§2) To measure kₒₙ, individual Fabs at 2 nM are mixed with 0-240 nM of antigen using the injection method according to the manufacturer's instructions, and the unbound Fab is detected. The resulting data is used to calculate the kₒₙ with KinExA 3000 software. The koff is calculated by using the formula Kd=koff/kₒₙ.

[3] = biological target: T1, human TGF-beta 1 (R&D Systems, Cat # …); test: calculated from KinExA Kd and kon
Experimental: as §1, §2

Row | Binder | Kd [1] | kon [2] | koff [3]
1 | B1 | 1.2 pM | 4.2e+06 M⁻¹ s⁻¹ | 5.1e-06 s⁻¹
2 | B2 | 4 pM | 4.8e+06 M⁻¹ s⁻¹ | 1.9e-05 s⁻¹
3 | B3 | 0.5 pM | 4.5e+06 M⁻¹ s⁻¹ | 2.3e-06 s⁻¹
4 | B4 | 0.9 pM | 4e+06 M⁻¹ s⁻¹ | 3.4e-06 s⁻¹
